Results published in patent US11360104, “Microbial-based biosensors” (TRUSTEES OF BOSTON UNIVERSITY).

Legend:
[1] = biological target: T1, PinR (AIY20223.2, TetR family) (Pimelobacter simplex); assay: FRET; progesterone for half-maximal DNA release; QD/TF/DNA 1/4/18; settings: tags: C-terminal His6, self-assembled on CdSe/CdS/ZnS quantum dot; label: Cy5 at 5' and 3'
T1 chain: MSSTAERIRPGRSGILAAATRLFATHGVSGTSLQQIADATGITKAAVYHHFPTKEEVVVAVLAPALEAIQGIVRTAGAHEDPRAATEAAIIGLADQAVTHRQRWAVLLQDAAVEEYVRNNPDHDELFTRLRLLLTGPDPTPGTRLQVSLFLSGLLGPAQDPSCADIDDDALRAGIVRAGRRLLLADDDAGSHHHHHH

[2] = biological target: T1, PinR (AIY20223.2, TetR family); assay: FRET; progesterone concentration for half-maximal DNA release; QD/TF/DNA 1/4/18; described as strongest binding sequence; settings: tags: C-terminal His6, self-assembled on CdSe/CdS/ZnS quantum dot; label: Cy5 at 5' and 3'
TetRc-tdTomato [3] = biological target: T2, TetRc-tdTomato (UniProt P03039 P03039:1-219); assay: FRET; only collisional quenching; settings: tags: tdTomato fusion, Strep-tag purified; chain copies: 2; label: Cy5 at 5' and 3' of reverse strand
T2 chain: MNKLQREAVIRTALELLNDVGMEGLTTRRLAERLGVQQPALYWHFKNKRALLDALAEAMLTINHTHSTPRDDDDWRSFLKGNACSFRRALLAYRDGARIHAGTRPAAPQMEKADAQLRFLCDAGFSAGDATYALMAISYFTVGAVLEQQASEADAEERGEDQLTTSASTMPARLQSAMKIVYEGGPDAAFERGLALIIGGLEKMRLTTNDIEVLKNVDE
Procedure: (§1) For QD-based nanoconstructs, the his-tagged proteins self-assemble to the QD surface stoichiometrically according to the mixture ratio with a Poissonian distribution of proteins on the QD surface was used. […] Four his6-TetR monomers were used per QD for the titrations of Sensors 2 and 3 (FIG. 2A-C). […] Upon increasing DNA concentration, there is increased donor quenching in all three cases.
(§2) FRET assays. The FRET response of each sensor as a function of the donor-acceptor ratio was tested by titration of the acceptor while the concentration of the donor was kept constant. Briefly, the sensors were prepared in a solution of TBS+0.2% (w/v) BSA and 1× binding buffer (20 mM Tris-HCl, 5 mM MgCl_2, 5% glycerol, 50 ng/µl salmon sperm DNA). For Sensor 1, the final concentration of tetR-tdTomato was kept constant at 200 nM, while Cy5-modified DNA were titrated to yield donor-acceptor ratios ranging from 0-9. The sensor solution was pipetted into wells of a black, non-binding 384-well plate (Corning) with a final volume of 60 µl. For triplicate measurements, each of the above solutions were prepared with a final volume of 180 µl in microcentrifuge tubes and pipetted into 3 separate wells of 60 µl each.

TetRc-6His [4] = biological target: T3, TetRc-6His (UniProt P03039 P03039:1-219); assay: FRET; only collisional quenching; settings: tags: His6, on quantum dot QD1; chain copies: 2; label: Cy5 at 5' and 3' of reverse strand
T3 chain: T2 chain
Procedure: as §1, §2
(§3) For Sensors 2 and 3, QDs and tetR-6His were mixed at a 1:4 ratio with a final QD concentration of 50 nM for self-assembly of the tetR-6His to the surface of the QDs[21]. […]

TetRd-6His [5] = biological target: T4, TetRd-6His (UniProt P0ACT4 P0ACT4:2-218); assay: FRET; only collisional quenching; settings: tags: His6, on quantum dot QD2; chain copies: 2; label: Cy5 at 5' and 3' of reverse strand
Procedure: as §1, §2, §3

TetRc-tdTomato [6] = biological target: T2, TetRc-tdTomato; assay: FRET; aTc concentration for half-maximal DNA release; 5 mM MgCl2; settings: tags: tdTomato fusion, Strep-tag purified; chain copies: 2; label: Cy5 at 5' and 3' of reverse strand
Procedure: (§4) At higher concentrations of aTc, binding of the TF and DNA is disrupted, reducing FRET, thereby increasing donor emission and reducing acceptor emission. Spectra are background subtracted to eliminate the effects of direct acceptor excitation. FIG. 3D-3F show the ratio of acceptor fluorescence intensity to donor fluorescence intensity as a function of aTc concentration. […] Sensor 1 was prepared with a 1:1:3 ratio of tdTomato:TF:DNA, while sensors 2 and 3 were prepared with a 1:4:18 ratio of QD:TF:DNA. tdTomato (200 nM) and QD (50 nM) concentrations were selected to keep TF concentration constant at 200 nM. Data are mean±standard deviation for n=3.
(§5) A TF to DNA ratio was chosen for each sensor (1:3 for Sensor 1, 1:4.5 for Sensors 2 and 3) and kept constant for subsequent experiments testing sensor sensitivity to aTc. Photoluminescence spectra were measured from sensors with increasing concentrations of aTc yielded changes in the ratio between the acceptor emission and donor emission (F_A/F_D). With increasing concentrations of aTc, F_A/F_D values decreased indicating unbinding of the DNA from the TF resulting in an increase in donor emission and decrease in acceptor emission (FIG. 3A-F). No changes were observed when aTc was titrated into a solution of non-binding donor-acceptor pairs (scrambled controls). […]

TetRc-6His [7] = biological target: T3, TetRc-6His; assay: as above; settings: tags: His6, on quantum dot QD1; chain copies: 2; label: Cy5 at 5' and 3' of reverse strand
Procedure: as §4, §5

TetRd-6His [8] = biological target: T4, TetRd-6His; assay: FRET; aTc for half-maximal DNA release; lower DNA affinity than TetRc; 5 mM MgCl2; settings: tags: His6, on quantum dot QD2; chain copies: 2; label: Cy5 at 5' and 3' of reverse strand

T4 sequence (P0ACT4 2-218, one chain of several): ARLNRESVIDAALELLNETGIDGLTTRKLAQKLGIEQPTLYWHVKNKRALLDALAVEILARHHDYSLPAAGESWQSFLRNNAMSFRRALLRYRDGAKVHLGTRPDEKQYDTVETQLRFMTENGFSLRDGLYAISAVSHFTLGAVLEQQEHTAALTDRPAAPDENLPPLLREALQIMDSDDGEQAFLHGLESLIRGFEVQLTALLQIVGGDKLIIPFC

B1: DNA2 (IG.AIY19519.15) (dsDNA)
DNA 1: GCCTAACTAGCCGATCGGCTAGTCATTC
DNA 2: GAATGACTAGCCGATCGGCTAGTTAGGC
B1 gave an IC50 [1] of 370 nM.

B2: DNA1 (AIY20223.2) (dsDNA)
DNA 1: GCCTAACTAGCCGTTCGGCTAGTTATTC
DNA 2: GAATAACTAGCCGAACGGCTAGTTAGGC
B2 gave an IC50 [2] of 460 nM.

B3: Scrambled TetO control (dsDNA)
DNA 1: TCGTGAAACCGAGCGAGGGACACGCACA
DNA 2: TGTGCGTGTCCCTCGCTCGGTTTCACGA
B3: no binding (TetRc-tdTomato [3]); no binding (TetRc-6His [4]); no binding (TetRd-6His [5]).

B4: DNA4 (13,15-T,T) (dsDNA)
DNA 1: CCTTAACTAGCCGTTCTGTTAGTTATTC
DNA 2: GAATAACTAACAGAACGGCTAGTTAAGG
Work on B4 yielded an IC50 [1] of 150 nM.

B5: DNA3 (AIY20222.2) (dsDNA)
DNA 1: GCCTAACTAGCCGTTCGGCAAGTAATTC
DNA 2: GAATTACTTGCCGAACGGCTAGTTAGGC
B5 gave an IC50 [1] of 290 nM.

B6: TetO 28 bp (dsDNA)
DNA 1: GTCATCCCTATCATTGATAGAGATACTG
DNA 2: CAGTATCTCTATCAATGATAGGGATGAC
B6 was tested, and the EC50 (TetRc-tdTomato [6]) was 218 nM, the EC50 (TetRc-6His [7]) was 699 nM and the EC50 (TetRd-6His [8]) was 133 nM.
